We go through 5 molecules from paper PMC3170926 (Bioconjugate chemistry, 2011).

In general, half-life refers to the time needed for the level to fall by half in the phase considered. Read a high half-life as slow loss. For orientation: tissue uptake means the share of the injected amount in each gram of the tissue. Read a high tissue uptake as high uptake. Broadly, the IC50 is the concentration at which inhibition is half-maximal. Read a low IC50 as inhibition by little substance.

For series [1] the following is noted: cited from earlier work; for thermodynamic stability constant log K: Ga(III) complex.
On the set-up of series [2]: species or system SCID mice. The conditions noted are these: mouse, in vivo.
Details of series [3]: species or system SCID mice. Particulars: mouse, in vivo. The source holds these as a separate data set.
On the set-up of series [4]: species or system SCID mice. Particulars: mouse, in vivo. The source holds these as a separate data set.
In series [5] the test system is integrin αvβ3 positive PC-3 tumor xenografts. On the set-up: species or system SCID mice. Particulars: mouse, in vivo.
On the set-up of series [6]: species or system SCID mice. The conditions noted are these: mouse, in vivo, tumor uptake.
The test system of series [7] is integrin αvβ3 positive PC-3 tumor xenografts. More on the design: species or system SCID mice. Particulars: mouse, in vivo. The source holds these as a separate data set.
The target of another series is integrin αvβ3 (human (endogenous in U87MG), UniProt P06756 31-1048; P05106 27-788). The series is described as follows: radioligand binding.
integrin αvβ3, sequence (P06756 31-1048, chain 1 of 2): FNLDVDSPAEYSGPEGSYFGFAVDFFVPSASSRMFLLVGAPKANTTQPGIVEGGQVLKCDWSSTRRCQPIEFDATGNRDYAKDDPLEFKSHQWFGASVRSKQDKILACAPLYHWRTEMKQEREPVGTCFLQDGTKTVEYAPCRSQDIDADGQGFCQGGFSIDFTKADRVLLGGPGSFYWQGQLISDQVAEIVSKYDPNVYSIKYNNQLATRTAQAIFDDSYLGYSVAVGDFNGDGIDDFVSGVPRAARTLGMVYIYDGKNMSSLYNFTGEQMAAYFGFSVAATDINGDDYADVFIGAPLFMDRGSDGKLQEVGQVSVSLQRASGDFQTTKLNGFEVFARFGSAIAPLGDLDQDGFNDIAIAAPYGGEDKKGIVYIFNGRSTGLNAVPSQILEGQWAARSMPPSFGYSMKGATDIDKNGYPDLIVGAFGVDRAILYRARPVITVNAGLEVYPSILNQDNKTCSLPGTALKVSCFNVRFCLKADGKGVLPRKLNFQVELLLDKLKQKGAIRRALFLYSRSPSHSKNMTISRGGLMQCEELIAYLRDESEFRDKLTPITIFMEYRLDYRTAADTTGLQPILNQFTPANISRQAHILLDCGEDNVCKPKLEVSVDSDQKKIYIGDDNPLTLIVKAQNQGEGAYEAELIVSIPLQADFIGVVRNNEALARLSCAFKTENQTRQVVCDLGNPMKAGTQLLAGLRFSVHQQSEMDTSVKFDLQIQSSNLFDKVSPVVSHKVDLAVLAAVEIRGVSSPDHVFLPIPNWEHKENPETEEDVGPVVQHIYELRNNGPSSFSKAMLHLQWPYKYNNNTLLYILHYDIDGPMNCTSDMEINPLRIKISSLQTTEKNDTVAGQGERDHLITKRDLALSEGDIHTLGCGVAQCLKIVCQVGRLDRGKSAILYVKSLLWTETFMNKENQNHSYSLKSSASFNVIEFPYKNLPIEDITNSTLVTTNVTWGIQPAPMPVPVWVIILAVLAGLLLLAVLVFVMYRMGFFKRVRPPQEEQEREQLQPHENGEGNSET
integrin αvβ3, sequence (P05106 27-788, chain 2 of 2): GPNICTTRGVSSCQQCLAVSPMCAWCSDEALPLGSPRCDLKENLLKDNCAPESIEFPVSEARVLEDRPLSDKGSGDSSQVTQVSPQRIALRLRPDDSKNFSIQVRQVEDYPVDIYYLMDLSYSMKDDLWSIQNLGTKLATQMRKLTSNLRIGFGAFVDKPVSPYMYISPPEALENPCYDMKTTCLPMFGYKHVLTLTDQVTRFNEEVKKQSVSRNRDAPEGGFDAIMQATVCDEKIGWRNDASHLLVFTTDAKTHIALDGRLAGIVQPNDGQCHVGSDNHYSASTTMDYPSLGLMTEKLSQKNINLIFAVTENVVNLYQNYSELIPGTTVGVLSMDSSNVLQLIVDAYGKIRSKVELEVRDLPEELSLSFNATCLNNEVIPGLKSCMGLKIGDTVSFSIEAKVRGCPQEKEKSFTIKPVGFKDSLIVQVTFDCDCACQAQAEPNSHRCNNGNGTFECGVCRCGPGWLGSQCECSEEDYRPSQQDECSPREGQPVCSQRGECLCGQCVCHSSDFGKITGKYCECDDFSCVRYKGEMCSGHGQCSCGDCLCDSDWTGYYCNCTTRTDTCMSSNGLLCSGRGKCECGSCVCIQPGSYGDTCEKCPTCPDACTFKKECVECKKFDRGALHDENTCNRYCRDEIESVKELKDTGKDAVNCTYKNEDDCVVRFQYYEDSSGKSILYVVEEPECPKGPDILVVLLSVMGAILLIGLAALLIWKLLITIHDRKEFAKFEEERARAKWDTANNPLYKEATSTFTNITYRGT

Read-outs that look alike come from different tables or passages of the source.

As to `O=C([O-])CN1CCN(CC(=O)[O-])CCN(CC(=O)O)CCN(CC(=O)[O-])CC1.[Ga+3]` [DOTA complex with Ga(III)], the “thermodynamic stability constant log K” value in series [1] (ref 39) is on record as 21.33.
For the molecule `O=C([O-])CN1CCN(CC(=O)[O-])CCN(CC(=O)[O-])CC1.[Ga+3]` [Ga(III)-NOTA complex], in series [1] (6N HNO3 for 6 days), the acid-catalyzed dissociation entry is reported as “stay inert against the acid-catalyzed dissociation”. Besides, the “thermodynamic stability constant log K” value is 30.98 in series [1] (ref 22, 24) and 30.98 in series [1] (ref 24).
For the molecule `O=C([O-])CN1CCN(CC(=O)[O-])CCN(C(CC(=O)O)C(=O)[O-])CC1.[Ga+3]` (stereo not shown) [Ga-NODASA], in series [1] (ref 24), the “thermodynamic stability constant log K” value is given as 30.9.
With `N=C(N)NCCC[C@@H]1NC(=O)[C@H](CCCCNC(=S)Nc2ccc(C[C@H]3CN(CC(=O)O)CCN(CC(=O)O)CCN3CC(=O)O)cc2)NC(=O)[C@@H](Cc2ccc(O)cc2)NC(=O)[C@H](CC(=O)O)NC(=O)CNC1=O` [^68Ga-1a, metal not drawn], the “metabolites in urine by radio-HPLC” value in series [2] is “no metabolites were detected”. For the same molecule, the half-life in series [3] (t1/2(α), distribution half-life) stood at 4 ± 1.1 min; in series [3] (t1/2(β), terminal half-life), 29.8 ± 7.1 min. The values for the tissue uptake at 0.5 h in series [4] (kidney uptake) and in series [4] (liver uptake) were 6.25 ± 0.61 %ID/g and 1.98 ± 0.29 %ID/g, respectively. Further, the tissue uptake at 2 h in series [4] (kidney uptake) was 2.95 ± 0.76 %ID/g; in series [4] (tumor uptake) it was 1.63 ± 0.19 %ID/g; in series [6] it was 1.4 ± 0.36 %ID/g. Moreover, the “kidney uptake retained at 2 h p.i.” value in series [5] is recorded as “less than 60%”. The “tumor uptake retention at 2 h p.i.” value in series [7] amounted to 43%.
cyclo(RGDYK) (not fully specified (residue 4)) [c(RGDyK) peptide] had an IC50 with integrin αvβ3 of 204 nM.
